Experimental data from doi:10.1101/2025.11.27.690698 (bioRxiv, 2025).
Numbering of substitutions follows the chain as printed. In names and notes the source's numbering stands.

B1: human NLRP10 (aa 4-655) (natural protein)
chain: AKARKPREALLWALSDLEENDFKKLKFYLRDMTLSEGQPPLARGELEGLIPVDLAELLISKYGEKEAVKVVLKGLKVMNLLELVDQLSHICLHDYREVYREHVRCLEEWQEAGVNGRYNQVLLVAKPSSESPESLACPFPEQELESVTVEALFDSGEKPSLAPSLVVLQGSAGTGKTTLARKMVLDWATGTLYPGRFDYVFYVSCKEVVLLLESKLEQLLFWCCGDNQAPVTEILRQPERLLFILDGFDELQRPFEEKLKKRGLSPKESLLHLLIRRHTLPTCSLLITTRPLALRNLEPLLKQARHVHILGFSEEERARYFSSYFTDEKQADRAFDIVQKNDILYKACQVPGICWVVCSWLQGQMERGKVVLETPRNSTDIFMAYVSTFLPPDDDGGCSELSRHRVLRSLCSLAAEGIQHQRFLFEEAELRKHNLDGPRLAAFLSSNDYQLGLAIKKFYSFRHISFQDFFHAMSYLVKEDQSRLGKESRREVQRLLEVKEQEGNDEMTLTMQFLLDISKKDSFSNLELKFCFRISPCLAQDLKHFKEQMESMKHNRTWDLEFSLYEAKIKNLVKGIQMNNVSFKIKHSNEKKSQSQNLFSVKSSLSHGPKEEQKCPSVHGQKEGKDNIAGTQKEASTGKGRGTEETPKNTYI
B2: Walker A mutant human NLRP10 (aa 4-655 K179A) (natural protein)
chain: B1 chain with K176A

Biological target: the molecule itself
Assay: SEC

Protein	binding result
B1	binds
B2	binds
